Legend:
HLA-A*0201 = molecular target: T1, HLA-A*0201 (Homo sapiens, UniProt P04439, D140Y/D185E/D98H/E176V/E277Q/G131W/G231S/I119V/I121R/I166T/I218V/L300P/L318F/N151K/N90K/P208A/P217A/Q86G/Q94H/R138H/R169H/T345S); test: Affinity of the peptide to HLA-A*0201 measured on T2 cell line (FACS, anti-HLA-A2 labelling); type: binding; conditions: for binding to HLA-A*0201 / affinity to HLA-A*0201 compared with the peptide 1A9V: Example 3, FIG. 4, T2 cells; for peptide concentration inducing 20% of expression of the HLA-A*0201: T2 cells
T1 construct: human tumoral cell T2 which expresses the HLA-A*0201 molecule, but which is TAP1/2 negative; endogenous in cells; host or cells: T2 cells (human, TAP1/2 negative)
From the text: The experimental protocol is similar to the one that was validated for peptides presented by the HLA-A*0201 (Tourdot et al., A general strategy to enhance immunogenicity of low-affinity HLA-A2.1-associated peptides: implication in the identification of cryptic tumor epitopes. Eur J Immunol. 2000 December; 30 (12): 3411-21). Affinity measurement of the peptides is achieved with the human tumoral cell T2 which expresses the HLA-A*0201 molecule, but which is TAP1/2 negative and incapable of presenting endogenous peptides.
(§1) T2 cells (2.10^5 cells per well) are incubated with decreasing concentrations of peptides from 100 μM to 0.1 μM in a AIMV medium supplemented with 100 ng/μl of human β2m at 37° C. for 16 hours. Cells are then washed two times and marked with the anti-HLA-A2 antibody coupled to PE (clone BB7.2, BD Pharmagen).
The analysis is achieved by FACS (Guava Easy Cyte).
(§2) For each peptide concentration, the geometric mean of the labelling associated with the peptide of interest is substracted from background noise and reported as a percentage of the geometric mean of the […] labelling obtained for the reference peptide HIV pol 589-597 at a concentration of 100 μM. The relative affinity is then determined as follows: relative affinity=concentration of each peptide inducing 20% of expression of HLA-A*0201/concentration of the reference peptide inducing 20% of expression of HLA-A*0201. A2. Solubilisation of Peptides
The experimental protocol was similar to the one that was validated for peptides presented by the HLA-A*0201 (Tourdot et al., A general strategy to enhance immunogenicity of low-affinity HLA-A2.1-associated peptides: implication in the identification of cryptic tumor epitopes. Eur J Immunol. 2000 December; 30 (12): 3411-21).
as §1, with “were” for “are”
The analysis was achieved by FACS (Guava Easy Cyte).
as §2, with “was subtracted” for “is substracted”
The experimental protocol, materials and methods correspond to those outlined in Example 3, with the only difference that the above mentioned antigenic peptides were used.

β/A2/DR3 mice = test: ELISPOT-IFNγ assay on splenocytes of vaccinated β/A2/DR3 mice; type: in vivo, mouse; conditions: as compared to IL13RA2-H-vaccinated animals (group 2)

| Sequence | binding to HLA-A*0201 (HLA-A*0201) | T cell responses in the ELISPOT-IFNγ assay after vaccination (β/A2/DR3 mice) | affinity to HLA-A*0201 compared with the peptide 1A9V (HLA-A*0201) | peptide concentration inducing 20% of expression of the HLA-A*0201 (HLA-A*0201) |
| --- | --- | --- | --- | --- |
| CLYTFLIST [IL13RA2-H2, reference compound] | do not bind to or show much lower affinity |  |  |  |
| FLPFGFILV [IL13RA2-B] | bind strongly | improved T cell responses | higher affinity | 4.4 µM |
| WLPFGFILI [IL13RA2-H, reference compound] | do not bind to or show much lower affinity |  |  | 100 UM |
| YLYTFLIST [IL13RA2-B2] | bind strongly |  | higher affinity |  |
